Experimental findings from patent US20190314452A1 (YUHAN, published 2019) are described below.

The target in the test is human GLP-1 receptor (human, UniProt P43220 24-463). Nature of the test: cell-based or functional assay.

B1: DFD23 (Fc fusion)
chain: HGEGTFTSDVSSYLEGQAAKEFIAWLVKGRGEKEKEEQEERETKTPECPSHTQPLGVFLFPPKPKDTLMISRTPEVTCVVVDVSQEDPEVQFNWYVDGVEVHNAKTKPREEQFNSTYRVVSVLTVLHQDWLNGKEYKCKVSNKGLPSSIEKTISKAKGQPREPQVYTLPPSQEEMTKNQVSLTCLVKGFYPSDIAVEWESNGQPENNYKTTPPVLDSDGSFFLYSRLTVDKSRWQEGNVFSCSVMHEALHNHYTQKSLSLSLGKGGGGSGGGGSGGGGSHPIPDSSPLLQFGGQVRQRYLYTDDAQQTEAHLEIREDGTVGGAADQSPESLLQLKALKPGVIQILGVKTSRFLCQRPDGALYGSLHFDPEACSFREEIRPDGYNVYQSEAHGLPLHLPGNKSPHRDPAPRGPARFLPLPGLPPALPEPPGILAPQPPDVGSSDPLSMVTGLEAVRSPSYAS
Regarding B1, the “in vitro GLP-1 activity (intracellular cAMP, EC50 compared)” value is 2 to 3 times lower than the fusion proteins containing other GLP-1 mutant sequences.

B2: DFD59: GLP1(GEG)-HyFc40 (Fc fusion)
chain: HGEGTFTSDVSSYLEEQAAKEFIAWLVKGGGEKEKEEQEERETKTPECPSHTQPLGVFLFPPKPKDTLMISRTPEVTCVVVDVSQEDPEVQFNWYVDGVEVHNAKTKPREEQFNSTYRVVSVLTVLHQDWLNGKEYKCKVSNKGLPSSIEKTISKAKGQPREPQVYTLPPSQEEMTKNQVSLTCLVKGFYPSDIAVEWESNGQPENNYKTTPPVLDSDGSFFLYSRLTVDKSRWQEGNVFSCSVMHEALHNHYTQKSLSLSLGK
B2: the “in vitro GLP-1 activity (intracellular cAMP, EC50 compared)” value is ~2 times higher than DFD69, DFD112 and DFD114.
